The text below walks through data of the supplement of paper PMC10567573.

± gives the standard deviation.

The nature of this data set: protein stability index of a GFP-peptide fusion (GPS, HEK-293T) (PSI 1-6); higher = more stable. To be noted: c terminus: a fixed tail appended.
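Further: 24-mer peptide tiles fused after GFP, lentivirally expressed, FACS-sorted into six equal bins by GFP/DsRed ratio, decoded by Illumina sequencing, PSI is the read-weighted mean bin number.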

Take PQFLHEGLSKPVYVINWFMSFGPE [FAM104B]: the protein stability index is, setting by setting: (treatment: DMSO) 2.68 ± 0.71; (treatment: MLN4924 1 uM, 8 h) 2.97 ± 1.2.
